Data on two molecules can be found in patent US20160215035A1.

Read-outs that look alike come from different tables or passages of the source. A value given as a limit tells only on which side of the number the result lay.

What all share (assay): cell-based or functional assay
Assay [1] concerns the target IL-4Rα (UniProt P24394).
The target of assay [2] is Type I IL-4R (UniProt P24394).
The target of assay [3] is IL-4Rα (UniProt P24394). This is another data set of the same source.

Sequence of UniProt P24394 (P24394 26-825 limits assumed): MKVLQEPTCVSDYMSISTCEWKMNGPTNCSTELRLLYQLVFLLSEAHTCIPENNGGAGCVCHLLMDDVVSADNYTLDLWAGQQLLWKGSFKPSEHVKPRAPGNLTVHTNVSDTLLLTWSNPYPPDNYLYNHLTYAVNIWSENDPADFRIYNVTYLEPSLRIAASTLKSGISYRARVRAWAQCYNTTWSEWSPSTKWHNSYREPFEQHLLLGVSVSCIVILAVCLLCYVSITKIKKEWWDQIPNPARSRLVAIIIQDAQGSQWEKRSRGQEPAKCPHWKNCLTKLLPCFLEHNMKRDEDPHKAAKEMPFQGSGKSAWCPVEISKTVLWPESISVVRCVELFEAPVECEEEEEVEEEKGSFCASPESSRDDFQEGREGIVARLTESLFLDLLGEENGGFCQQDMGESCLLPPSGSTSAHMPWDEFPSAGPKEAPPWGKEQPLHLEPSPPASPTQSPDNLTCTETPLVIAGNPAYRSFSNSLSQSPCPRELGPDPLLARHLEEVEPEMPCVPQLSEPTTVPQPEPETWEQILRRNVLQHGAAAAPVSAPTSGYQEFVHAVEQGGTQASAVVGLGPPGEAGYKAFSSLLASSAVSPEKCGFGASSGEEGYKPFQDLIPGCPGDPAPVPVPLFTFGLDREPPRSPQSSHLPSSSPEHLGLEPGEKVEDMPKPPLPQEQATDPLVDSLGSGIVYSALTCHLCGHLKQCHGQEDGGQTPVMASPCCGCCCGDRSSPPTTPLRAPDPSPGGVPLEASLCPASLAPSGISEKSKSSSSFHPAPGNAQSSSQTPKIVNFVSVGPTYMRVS

In assay [1], cpIL4-PE (from UniProt P11439 278-633) showed an IC50 (ng/mL), cell count by trypan blue exclusion, KCCL871 cells of 1.5 ng/mL; an IC50 (ng/mL), cell count by trypan blue exclusion, KCCOR891 cells of 9 ng/mL; an IC50 (ng/mL), cell count by trypan blue exclusion, KCCTCM901 cells of 0.7 ng/mL; an IC50 (ng/mL), cell count by trypan blue exclusion, YCUM862 cells of 0.6 ng/mL. Further, in assay [1], the IC50 (ng/mL), cell count by trypan blue exclusion, YCUM911 cells was 4.5 ng/mL and the IC50 (ng/mL), cell count by trypan blue exclusion, YCUT891 cells came out at 8 ng/mL. The IC50, inhibition of [3H]-thymidine incorporation in HH cells (48 h) in assay [2] is 362 ng/mL.

B1: cpIL-4BAD fusion protein (protein)
chain: MDTTEKETFCRAATVLRQFYSHHEKDTRCLGATAQQFHRHKQLIRFLKRLDRNLWGLAGLNSCPVKEANQSTLENFLERLKTIMREKYSKCSSGGNGGHKCDITLQEIIKTLNSLTEQKTLCTELTVTDIFAASGSFQIPEFEPSEQEDSSSAERGLGPSPAGDGPSGSGKHHRQAPGLLWDASHQQEQPTSSSHHGGAGAVEIRSRHSAYPAGTEDDEGMGEEPSPFRGRSRAAPPNLWAAQRYGRELRRMSDEFVDSFKKGLPRPKSAGTATQMRQSSSWTRVFQSWWDRNLGRGSSAPSQ
In assay [3], B1 displayed an IC50 (ng/mL), cell count by trypan blue exclusion, KCCL871 cells of 0.5 ng/mL; an IC50 (ng/mL), cell count by trypan blue exclusion, KCCOR891 cells of 0.15 ng/mL; an IC50 (ng/mL), cell count by trypan blue exclusion, KCCTCM901 cells of 1 ng/mL; an IC50 (ng/mL), cell count by trypan blue exclusion, YCUM862 cells of 1.1 ng/mL. For the same molecule, in assay [3], the IC50 (ng/mL), cell count by trypan blue exclusion, YCUM911 cells came to 0.2 ng/mL; the IC50 (ng/mL), cell count by trypan blue exclusion, YCUT891 cells was 11 ng/mL; the IC50, 5-day cell viability assay on Daudi cells, with 100x excess IL-4 is more than 1000 ng/mL; the IC50, 5-day cell viability assay on Daudi cells, without excess IL-4 worked out at 0.3 ng/mL. Also, in assay [3], the IC50, 5-day cell viability assay on U 251 cells, with 100x excess IL-4 is more than 1000 ng/mL; the IC50, 5-day cell viability assay on U 251 cells, without excess IL-4 stood at 0.3 ng/mL; the IC50, colony formation assay on U 251 cells (10 days) amounted to 5 ng/mL; the IC50, killing of Daudi cells (viable cell count, trypan blue exclusion, 5 days) stood at 0.1 ng/mL. The molecule further displayed an IC50, killing of U 251 cells (viable cell count, trypan blue exclusion, 5 days) in assay [3] of 0.6 ng/mL.
